Assays:
SEC = target: the molecule itself; assay: SEC
[1] = target: T1, N-terminal His-tagged SisHjm (Hjm/Hel308a helicase from Sulfolobus islandicus) (Sulfolobus islandicus, UniProt F0NDL2 1-715); assay: SEC
T1 sequence (looked up): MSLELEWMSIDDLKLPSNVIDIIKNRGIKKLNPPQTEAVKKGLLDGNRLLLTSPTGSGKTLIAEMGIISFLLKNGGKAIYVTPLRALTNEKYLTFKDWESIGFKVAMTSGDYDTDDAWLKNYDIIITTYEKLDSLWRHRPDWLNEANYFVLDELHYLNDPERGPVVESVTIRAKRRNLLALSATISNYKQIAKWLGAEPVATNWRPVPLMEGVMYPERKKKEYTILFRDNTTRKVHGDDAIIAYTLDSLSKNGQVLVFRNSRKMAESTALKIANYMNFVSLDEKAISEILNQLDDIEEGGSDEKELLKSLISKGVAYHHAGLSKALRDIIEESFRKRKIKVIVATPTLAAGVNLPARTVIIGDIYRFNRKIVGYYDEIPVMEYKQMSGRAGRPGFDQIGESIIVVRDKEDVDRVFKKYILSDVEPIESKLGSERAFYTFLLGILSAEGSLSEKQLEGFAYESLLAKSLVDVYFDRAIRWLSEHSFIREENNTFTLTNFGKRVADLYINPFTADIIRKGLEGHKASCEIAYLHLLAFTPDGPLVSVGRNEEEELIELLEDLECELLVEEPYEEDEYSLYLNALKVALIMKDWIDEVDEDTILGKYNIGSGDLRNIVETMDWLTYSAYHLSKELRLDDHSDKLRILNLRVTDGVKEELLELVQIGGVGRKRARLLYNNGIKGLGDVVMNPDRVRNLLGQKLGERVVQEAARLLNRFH

- stoichiometry N [1]: ~1 Hjm monomer per PINA hexamer
B1: SisPINA (PIN domain-containing ATPase from Sulfolobus islandicus), recombinant, without tag (enzyme, UniProt F0NID4 1-505, looked up)
chain: MNDLMLDKSALLFGVSKYLEKGIITGNVLIHKSLLAELERESNDGLVSAEIALDEVKKLKDITERILVNFEIVGDDSKKGEANELSREYCLEKGCIIVTADETQKKICDAMGIQYNFLQPLKQGLSFESFFDDETMSLHIKEDTVPRAKKGKPGNWKFVNLSDKPMLSTDVRMIANEIINAVRLIKGSFVEIERRGSLIIQLGNYRVVITRPPLSDGWEITITRPVVRKRLEDYNLDERLIKRLEERAEGIIIAGAPGMGKTTFAQALAEYYMRLGKIVKTIESPRDMHLPPEITQYSKNYAEIGELHDILLLSRPDYTVYDEMRNDEDFKLYVDLRLAGVGMVGVVHATSPIDAIHRFVNRVDIGTIPNILDTIIFINSGNVSKVYTLEMTVKVPAGLKEADLARPVVEIKDLATGNTEYEIYVFGEQTMIVPVNRGITMSNMEFKISKIVNNIIPNATVKYEDGEYVIVIPKEEIGKYNRKLVQRLKRLEKKNNIKIKIKLSD
- stoichiometry N (SEC): 6

From article PMC6061704 (Nucleic Acids Research, 2018)
